Data reported in patent US20240182572A1 (OSE IMMUNOTHERAPEUTICS, published 2024).

Legend:
[1] = biological target: T1, Recombinant hPD1 (Sino Biologicals, reference 10377-H08H) (human, UniProt Q15116 25-167); assay: ELISA, recombinant hPD1 immobilized, detection with peroxidase-labeled anti-human IgG
T1 construct: Bought recombinant protein; also called Human recombinant PD-1 (rPD1) protein; human PD-1
Procedure: Recombinant hPD1 (Sino Biologicals, Beijing, China; reference 10377-H08H) was immobilized on plastic at […] in carbonate buffer (pH 9.2) and purified antibody was added to measure binding.
For activity ELISA assay, recombinant hPD1 (Sino Biologicals, Beijing, China; reference 10377-H08H) was immobilized on plastic at 0.5 μg/ml in carbonate buffer (pH 9.2) and purified antibody were added to measure binding.

[2] = biological target: T2, biotinylated Human PD1 (AcroBiosystems, reference EP-101) (human, UniProt Q15116 25-167, limits assumed, biotinylated (site not stated)); assay: competitive ELISA: hPDL1 immobilized, biotinylated human PD1 at 0.66 µg/ml mixed with the antibody, streptavidin detection
T2 construct: Kit reagent; also called Biotin-PD-1Fc; not shown: Fc part, named only as 'Biotin-PD-1Fc'
Procedure: To measure antagonist activity of the bifunctional antibody, a competitive ELISA assay was performed by PD-1:PD-L1 Inhibitor Screening ELISA Assay Pair (AcroBiosystems; USA; reference EP-101). In this assay, recombinant hPDL1 was immobilized on plastic at 2 μg/ml in PBS pH 7.4 buffer.
Competitive ELISA assay was performed by PD-1:PD-L1 Inhibitor Screening ELISA Assay Pair (Acro Biosystems; USA; reference EP-101). In this assay, recombinant hPDL1 was immobilized on plastic at 2 μg/ml in PBS pH 7.4 buffer.

T1 sequence (Q15116 25-167 limits assumed): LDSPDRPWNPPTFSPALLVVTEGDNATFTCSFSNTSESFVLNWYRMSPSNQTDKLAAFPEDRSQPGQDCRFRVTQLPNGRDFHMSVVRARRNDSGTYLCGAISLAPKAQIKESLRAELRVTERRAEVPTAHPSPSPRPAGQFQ
T2 sequence (Q15116 25-167 limits assumed): as above

EC50 [1]: 0.33 nM
IC50 [2]: 6.9 nM
B1: anti PD-1*1/SIRPg*1 (bispecific antibody, human IgG1, kappa, N297A)
chain: DKTHTCPPCPAPELLGGPSVFLFPPKPKDTLMISRTPEVTCVVVDVSHEDPEVKFNWYVDGVEVHNAKTKPREEQYASTYRVVSVLTVLHQDWLNGKEYKCKVSNKALPAPIEKTISKAKGQPREPQVYTLPPCRDELTKNQVSLWCLVKGFYPSDIAVEWESNGQPENNYKTTPPVLDSDGSFFLYSKLTVDKSRWQQGNVFSCSVMHEALHNHYTQKSLSLSPGK
heavy: not shown
light: DVVMTQSPLSLPVTLGQPASISCRSSQSLVHANTNTYLEWYQQRPGQSPRLLIYKVSNRFSGVPDRFSGSGSGTDFTLKISRVEAEDVGVYYCFQGTHVPNTFGQGTKLEIKRTVAAPSVFIFPPSDEQLKSGTASVVCLLNNFYPREAKVQWKVDNALQSGNSQESVTEQDSKDSTYSLSSTLTLSKADYEKHKVYACEVTHQGLSSPVTKSFNRGEC
notes: IgG1 N298A isotype, knob-into-hole; also called anti-PD-1*1/SIRP*1; Anti PD-1*1 SIRP*1
